# Test results taken from patent US9035023B2, “Bombesin analog peptide antagonist conjugates” (Piramal Imaging, SA, priority 2008, dated 2015).
# Legend:
# [1] = biological target: T1, GRP receptor (Homo sapiens, UniProt P30550); assay: Calcium release assay in PC3 cells (Fluo-4NW); assay type: cell-based; design: host or cells: PC3 cells
# Procedure: In brief, PC3 cells were seeded (10,000 cells per well) in 96 well plates and cultured for 2 day at 37° C. and 5% CO2 in culture medium. At the day of the experiment, the cells were washed with assay buffer (1×HBSS, 20 mM HEPES) containing 2.5 mM probenecid, and then loaded with 100 μL/well Fluo-4NW dye in assay buffer containing 2.5 mM probenecid for 30 min at 37° C. and 5% CO2 and then for further 30 min at room temperature. […] Intracellular calcium mobilization was recorded in a kinetic for 60 sec at room temperature monitoring fluorescence emission at 520 nm (with λex=485 nm) in the presence of the analogues at the concentrations indicated. […] Baseline (F-baseline) measurements were taken for dye-loaded, untreated cells. […] All experiments were repeated at least three times in triplicate.
# [2] = biological target: T1, GRP receptor; assay: GRP receptor binding affinity by in vitro receptor autoradiography; design: host or cells: PC3 cells; conditions: read-out: BINDING IC50 (nM) mean ± SEM
# Procedure: The GRP receptor binding affinity of the various compounds was determined by in vitro receptor autoradiography on cryostat sections of either well characterized prostate carcinomas, or on sections from HEK-GRPR or PC3 cell pellets as described previously (Markwalder et al., Can. Res., 1999; 59, 1152-1159; Reubi et al., Eur. J. Nucl. Med., 2000; 27: 273-282; Reubi et al., Clin. Cancer Res. 2002; 8 1139-1146).
# [3] = biological target: T1, GRP receptor; assay: Immunofluorescence microscopy based internalization assay with HEK-GRPR cells; assay type: cell-based; design: expressed in transfected cells; host or cells: HEK293; conditions: for antagonism of bombesin-induced GRP receptor internalization: 10 nmol/L bombesin + 1 μmol/L analogue; for antagonism of bombesin-induced GRP receptor internalization / GRP receptor internalization, given alone: 30 min; for GRP receptor internalization, given alone: 1 μmol/L
# Procedure: Briefly, HEK-GRPR cells were grown on poly-D-lysine (20 μg/ml) (Sigma-Aldrich, St. Louis, Mo.) coated 35 mm four-well plates (Cellstar, Greiner Bio-One GmbH, Frickenhausen, Germany). […] The cells were imaged using a Leica DM RB immunofluorescence microscope and an Olympus DP10 camera.
# Following incubation with the peptides, the cells were processed for immunocytochemistry as described in above.
# [4] = tested on: LNCaP tumor
# [5] = tested on: PC-3 tumor
# [6] = tested on: PC-3 tumor; assay: Biodistribution in PC-3 tumor bearing nude mice
# Procedure: Eleven days after inoculation the mice were injected into the tail vein with 10 pmol of radiolabeled peptides (about 0.18 MBq), diluted in NaCl (0.1% bovine serum albumin, pH 7.4, total injected volume=100 μL).
# [7] = biological target: T1, GRP receptor; conditions: cited from earlier work
# [8] = 100 μg bombesin or non-radioactive Compound 2
# T1 sequence (P30550 whole entry): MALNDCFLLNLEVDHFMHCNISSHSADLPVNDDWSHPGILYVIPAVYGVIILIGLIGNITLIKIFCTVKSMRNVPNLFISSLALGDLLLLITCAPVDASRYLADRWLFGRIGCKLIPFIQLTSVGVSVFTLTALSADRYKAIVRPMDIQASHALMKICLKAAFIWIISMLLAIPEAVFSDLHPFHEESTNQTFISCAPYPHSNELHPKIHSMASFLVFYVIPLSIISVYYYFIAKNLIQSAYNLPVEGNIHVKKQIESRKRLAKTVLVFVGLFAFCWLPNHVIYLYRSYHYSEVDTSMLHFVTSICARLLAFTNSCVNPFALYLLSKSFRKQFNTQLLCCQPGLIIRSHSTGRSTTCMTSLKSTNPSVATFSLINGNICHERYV
compound,measurement,setting,value
"CC(C)C[C@H](NC(=O)C[C@H](O)[C@H](CC(C)C)NC(=O)[C@H](Cc1c[nH]cn1)NC(=O)CNC(=O)[C@@H](NC(=O)[C@H](C)NC(=O)[C@H](Cc1c[nH]c2ccccc12)NC(=O)[C@H](CCC(N)=O)NC(=O)[C@@H](Cc1ccccc1)NC(=O)c1ccc(NC(=O)CNC(=O)CN2CCN(CC(=O)O)CCN(CC(=O)O)CCN(CC(=O)O)CC2)cc1)C(C)C)C(N)=O [Compound 1, DOTA-Gly-aminobenzoyl-D-Phe-Gln-Trp-Ala-Val-Gly-His-Sta-Leu-NH2]","effect on calcium release, tested alone",[1]; 1 μmol/L and 10 μmol/L,no effect on calcium release
same,IC50,[2],30 ± 4.5 nM
same,antagonism of bombesin-induced GRP receptor internalization,[3],efficiently antagonized
same,"GRP receptor internalization, given alone",[3],no effect on GRP receptor internalization
CC(C)C[C@H](NC(=O)C[C@H](O)[C@H](CC(C)C)NC(=O)[C@H](Cc1c[nH]cn1)NC(=O)CNC(=O)[C@@H](NC(=O)[C@H](C)NC(=O)[C@H](Cc1c[nH]c2ccccc12)NC(=O)[C@H](CCC(N)=O)NC(=O)[C@@H](Cc1ccccc1)NC(=O)c1ccc(NC(=O)CNC(=O)CN2CCN(CC(=O)O)CCN(CC(=O)O)CCN(CC(=O)O)CC2)cc1)C(C)C)C(N)=O [^115In-1],Signaling Ca++ mobilization,[1],ANTAG/no agonist effect
same,IC50,[2],16 ± 5.3 nM
same,Receptor internalization,[3]; HEK-GRPR cells,Antag/no agonist
"[D-Phe^6, Leu-NHEt^13, des-Met^14]-bombesin(6-14) [GRPR-ANTAG, reference compound]",antagonism of bombesin-induced GRP receptor internalization,[3],efficiently antagonized
same,"GRP receptor internalization, given alone",[3],no effect on GRP receptor internalization
^68Ga-DOTA-4-amino-1-carboxymethyl-piperidine-D-Phe-Gln-Trp-Ala-Val-Gly-His-Sta-Leu-NH2 [^68Ga-COMPOUND 2],blocking of tumor contrast,[4]; [8],effectively blocked
same,tumor contrast,[4]; 1 h after injection of 10 MBq,High tumor-contrast
same,blocking of tumor contrast,[5]; [8],effectively blocked
same,tumor contrast,[5]; 1 h after injection of 10 MBq,High tumor-contrast
"^111In-DOTA-(15-amino-4,7,10,13-tetraoxapentadecanoic acid)-(4-amino-1-carboxy-methyl-piperidine)-D-Phe-Gln-Trp-Ala-Val-Gly-His-Sta-Leu-NH2 [^111In-Compound 5]","biodistribution, adrenal",[6]; 1 h,3.63 ± 0.53
same,"biodistribution, blood",[6]; 1 h,0.75 ± 0.21
same,"biodistribution, bone",[6]; 1 h,0.34 ± 0.04
same,"biodistribution, heart",[6]; 1 h,0.28 ± 0.06
same,"biodistribution, intestine",[6]; 1 h,2.39 ± 0.42
same,"biodistribution, kidney",[6]; 1 h,5.08 ± 0.72
same,"biodistribution, liver",[6]; 1 h,0.40 ± 0.09
same,"biodistribution, lung",[6]; 1 h,0.62 ± 0.15
same,"biodistribution, muscle",[6]; 1 h,0.19 ± 0.07
same,"biodistribution, pancreas",[6]; 1 h,26.83 ± 4.34
same,"biodistribution, pituitary",[6]; 1 h,9.02 ± 0.99
same,"biodistribution, spleen",[6]; 1 h,0.80 ± 0.28
same,"biodistribution, stomach",[6]; 1 h,3.92 ± 1.26
same,"biodistribution, tumor",[6]; 1 h,10.27 ± 0.36
same,tumor:blood,[6]; 1 h,13.73
same,tumor:bone,[6]; 1 h,29.93
same,tumor:kidney,[6]; 1 h,2.02
same,tumor:muscle,[6]; 1 h,53.65
same,tumor:pancreas,[6]; 1 h,0.38
same,"biodistribution, adrenal",[6]; 4 h,0.68 ± 0.31
same,"biodistribution, blood",[6]; 4 h,0.03 ± 0.01
same,"biodistribution, bone",[6]; 4 h,0.08 ± 0.02
same,"biodistribution, heart",[6]; 4 h,0.03 ± 0.01
same,"biodistribution, intestine",[6]; 4 h,0.17 ± 0.10
same,"biodistribution, kidney",[6]; 4 h,2.04 ± 0.15
same,"biodistribution, liver",[6]; 4 h,0.15 ± 0.05
same,"biodistribution, lung",[6]; 4 h,0.15 ± 0.19
same,"biodistribution, muscle",[6]; 4 h,0.02 ± 0.00
same,"biodistribution, pancreas",[6]; 4 h,1.36 ± 0.81
same,"biodistribution, pituitary",[6]; 4 h,0.38 ± 0.16
same,"biodistribution, spleen",[6]; 4 h,0.09 ± 0.03
same,"biodistribution, stomach",[6]; 4 h,0.87 ± 0.58
same,"biodistribution, tumor",[6]; 4 h,9.35 ± 0.73
same,tumor:blood,[6]; 4 h,319.66
same,tumor:bone,[6]; 4 h,124.55
same,tumor:kidney,[6]; 4 h,4.59
same,tumor:muscle,[6]; 4 h,475.17
same,tumor:pancreas,[6]; 4 h,6.90
same,"biodistribution, adrenal","[6]; 4 h blocking, 2000 fold",0.07 ± 0.02
same,"biodistribution, blood","[6]; 4 h blocking, 2000 fold",0.02 ± 0.00
same,"biodistribution, bone","[6]; 4 h blocking, 2000 fold",0.03 ± 0.03
same,"biodistribution, heart","[6]; 4 h blocking, 2000 fold",0.02 ± 0.00
same,"biodistribution, intestine","[6]; 4 h blocking, 2000 fold",0.03 ± 0.01
same,"biodistribution, kidney","[6]; 4 h blocking, 2000 fold",1.76 ± 0.36
same,"biodistribution, liver","[6]; 4 h blocking, 2000 fold",0.14 ± 0.01
same,"biodistribution, lung","[6]; 4 h blocking, 2000 fold",0.05 ± 0.01
same,"biodistribution, muscle","[6]; 4 h blocking, 2000 fold",0.01 ± 0.00
same,"biodistribution, pancreas","[6]; 4 h blocking, 2000 fold",0.06 ± 0.02
same,"biodistribution, pituitary","[6]; 4 h blocking, 2000 fold",0.23 ± 0.14
same,"biodistribution, spleen","[6]; 4 h blocking, 2000 fold",0.06 ± 0.01
same,"biodistribution, stomach","[6]; 4 h blocking, 2000 fold",0.06 ± 0.01
same,"biodistribution, tumor","[6]; 4 h blocking, 2000 fold",0.61 ± 0.07
same,"biodistribution, adrenal",[6]; 24 h,0.62 ± 0.16
same,"biodistribution, blood",[6]; 24 h,0.01 ± 0.00
same,"biodistribution, bone",[6]; 24 h,0.08 ± 0.02
same,"biodistribution, heart",[6]; 24 h,0.02 ± 0.00
same,"biodistribution, intestine",[6]; 24 h,0.05 ± 0.02
same,"biodistribution, kidney",[6]; 24 h,1.37 ± 0.22
same,"biodistribution, liver",[6]; 24 h,0.11 ± 0.02
same,"biodistribution, lung",[6]; 24 h,0.51 ± 0.73
same,"biodistribution, muscle",[6]; 24 h,0.02 ± 0.00
same,"biodistribution, pancreas",[6]; 24 h,0.33 ± 0.05
same,"biodistribution, pituitary",[6]; 24 h,0.46 ± 0.52
same,"biodistribution, spleen",[6]; 24 h,0.07 ± 0.01
same,"biodistribution, stomach",[6]; 24 h,0.05 ± 0.01
same,"biodistribution, tumor",[6]; 24 h,6.33 ± 0.76
same,tumor:blood,[6]; 24 h,1155.51
same,tumor:bone,[6]; 24 h,76.65
same,tumor:kidney,[6]; 24 h,4.62
same,tumor:muscle,[6]; 24 h,364.92
same,tumor:pancreas,[6]; 24 h,19.16
^177Lu-DOTA-Gly-4-aminobenzoyl-Gln-Trp-Ala-Val-Gly-His-Leu-Met-NH2 [Compound L70],agonist/antagonist behaviour,[7],behaved as an agonist
